Source: patent US20170247448A1 (INTRINSIC LIFESCIENCES, published 2017)

Legend:
[1] = target: T1, BAP070-01 (human-mouse chimeric MAb 583); test: C-ELISA, BAP070-01 supernatant on Protein G; competitor NT-biotin hepcidin-25; four parameter fit
T1 construct: used as CHO cell supernatant; also called BAP070-1
Method: The plate was washed with TBST and one (1) ng/well of NT-biotin hepcidin-25 was mixed with different amounts (0-100 ng) of synthetic hepcidin-25 standard in TBST, 0.25% BLOTTO and added onto the plate to bind competitively. The plate was washed with TBST and SA-HRP (1:2500) added and allowed to bind for 1 hour.
The plate was washed with TBST and […] substrate added and the reaction stopped after 10 minutes with stop solution. Absorbance at 450 nm was measured on a spectrophotometer.

BAP070-hum04 = target: T2, BAP070-hum04; test: C-ELISA: goat anti-human Fc coated plate, antibody captured (30 ng/well per title of FIG. 20D), unlabelled hepcidin titrated (ng/well per axis of FIG. 20D) against a labelled tracer not named for this figure; OD = tracer left on the antibody
T2 construct: Expressed as soluble IgG1 in CHO cells, tested as supernatant; The entries stop inside FR4

BAP070-hum06 = target: T3, BAP070-hum06; test: as above
T3 construct: Expressed as soluble IgG1 in CHO cells, tested as supernatant; The entries stop inside FR4

[2] = target: T1, BAP070-01 (human-mouse chimeric MAb 583); test: as above

T3 sequence (VH, as listed by the source, chain 1 of 2): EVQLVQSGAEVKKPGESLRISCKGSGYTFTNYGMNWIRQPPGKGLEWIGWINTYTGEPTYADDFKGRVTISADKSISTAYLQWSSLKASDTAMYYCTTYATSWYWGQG
T3 sequence (VL, as listed by the source, chain 2 of 2): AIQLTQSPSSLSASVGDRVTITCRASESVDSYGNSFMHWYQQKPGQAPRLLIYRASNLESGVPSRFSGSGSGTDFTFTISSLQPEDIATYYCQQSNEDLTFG
T1 sequence (VH, as listed by the source, chain 1 of 2): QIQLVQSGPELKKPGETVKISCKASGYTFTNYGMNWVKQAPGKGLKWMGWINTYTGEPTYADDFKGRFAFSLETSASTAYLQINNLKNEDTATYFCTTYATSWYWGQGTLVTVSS
T1 sequence (VL, as listed by the source, chain 2 of 2): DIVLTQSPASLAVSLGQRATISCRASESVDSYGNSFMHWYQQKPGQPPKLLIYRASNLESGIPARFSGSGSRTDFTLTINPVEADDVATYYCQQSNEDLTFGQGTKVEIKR
T2 sequence (VH, as listed by the source, chain 1 of 2): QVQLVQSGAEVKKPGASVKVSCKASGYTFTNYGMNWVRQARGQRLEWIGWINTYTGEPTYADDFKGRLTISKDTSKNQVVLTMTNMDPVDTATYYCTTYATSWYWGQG
T2 sequence (VL, as listed by the source, chain 2 of 2): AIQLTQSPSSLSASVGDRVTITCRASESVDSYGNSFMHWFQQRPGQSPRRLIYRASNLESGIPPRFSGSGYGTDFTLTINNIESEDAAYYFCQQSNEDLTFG

- EC50 [1]: 0.054 µg/mL
- OD450 at 0.000 ng/well hepcidin (BAP070-hum04): 0.433
- OD450 at 0.137 ng/well hepcidin (BAP070-hum04): 0.446
- OD450 at 0.412 ng/well hepcidin (BAP070-hum04): 0.415
- OD450 at 1.235 ng/well hepcidin (BAP070-hum04): 0.301
- OD450 at 3.704 ng/well hepcidin (BAP070-hum04): 0.148
- OD450 at 11.111 ng/well hepcidin (BAP070-hum04): 0.0719
- OD450 at 33.333 ng/well hepcidin (BAP070-hum04): 0.0303
- OD450 at 100.000 ng/well hepcidin (BAP070-hum04): 0.0135
- OD450 at 0.000 ng/well hepcidin (BAP070-hum06): 1.11
- OD450 at 0.137 ng/well hepcidin (BAP070-hum06): 1.1
- OD450 at 0.412 ng/well hepcidin (BAP070-hum06): 0.961
- OD450 at 1.235 ng/well hepcidin (BAP070-hum06): 0.72
- OD450 at 3.704 ng/well hepcidin (BAP070-hum06): 0.369
- OD450 at 11.111 ng/well hepcidin (BAP070-hum06): 0.154
- OD450 at 33.333 ng/well hepcidin (BAP070-hum06): 0.0599
- OD450 at 100.000 ng/well hepcidin (BAP070-hum06): 0.0238
- OD450 at 0.000 ng/well hepcidin [2]: 2.88
- OD450 at 0.137 ng/well hepcidin [2]: 2.77
- OD450 at 0.412 ng/well hepcidin [2]: 2.65
- OD450 at 1.235 ng/well hepcidin [2]: 1.77
- OD450 at 3.704 ng/well hepcidin [2]: 0.826
- OD450 at 11.111 ng/well hepcidin [2]: 0.334
- OD450 at 33.333 ng/well hepcidin [2]: 0.125
- OD450 at 100.000 ng/well hepcidin [2]: 0.0442
B1: Human hepcidin peptide (hepcidin-25) (peptide)
peptide: DTHFPICIFCCGCCHRSKCGMCCKT
notes: Synthetic 25 aa peptide; also called hep-25; Hep-25
